Reference: patent publication US20240117018A1

Assays:
Assay in all cases: cell-based or functional assay
[1] = target: HIV-1 Env of pseudovirus Ce704809221_1B3 (HIV-1)
[2] = target: HIV-1 Env of pseudovirus HIV-16845-2.22 (HIV-1)
[3] = target: HIV-1 Env of pseudovirus Ce0682_E4 (HIV-1)
[4] = target: HIV-1 Env of pseudovirus Du172.17 (HIV-1)
[5] = target: HIV-1 Env of pseudovirus Du422.1 (HIV-1)
[6] = target: HIV-1 Env of pseudovirus HIV-001428-2.42 (HIV-1)
[7] = target: HIV-1 Env of pseudovirus 1006_11_C3_1601 (HIV-1)
[8] = target: HIV-1 Env of pseudovirus TRJO4551.58 (HIV-1)
[9] = target: HIV-1 Env of pseudovirus ZM249M.PL1 (HIV-1)
[10] = target: HIV-1 Env of pseudovirus 1012_11_TC21_3257 (HIV-1)
[11] = target: HIV-1 Env of pseudovirus Ce1172_H1 (HIV-1)
[12] = target: HIV-1 Env of pseudovirus PVO.4 (HIV-1)
[13] = target: HIV-1 Env of pseudovirus CNE30 (HIV-1)
[14] = target: HIV-1 Env of pseudovirus WITO4160.33 (HIV-1)
[15] = target: HIV-1 Env of pseudovirus 6240_08_TA5_4622 (HIV-1)
[16] = target: HIV-1 Env of pseudovirus Du156.12 (HIV-1)
[17] = target: HIV-1 Env of pseudovirus ZM214M.PL15 (HIV-1)
[18] = target: HIV-1 Env of pseudovirus CNE53 (HIV-1)
[19] = target: HIV-1 Env of pseudovirus 6535.3 (HIV-1)
[20] = target: HIV-1 Env of pseudovirus Ce2010_F5 (HIV-1)
[21] = target: HIV-1 Env of pseudovirus CNE52 (HIV-1)
[22] = target: HIV-1 Env of pseudovirus 246F C1G (HIV-1)
[23] = target: HIV-1 Env of pseudovirus Q842.d12 (HIV-1)
[24] = target: HIV-1 Env of pseudovirus ZM197M.PB7 (HIV-1)
[25] = target: HIV-1 Env of pseudovirus ZM233M.PB6 (HIV-1)
[26] = target: HIV-1 Env of pseudovirus Ce0393_C3 (HIV-1)
[27] = target: HIV-1 Env of pseudovirus Ce703010054_2A2 (HIV-1)
[28] = target: HIV-1 Env of pseudovirus REJO4541.67 (HIV-1)
[29] = target: HIV-1 Env of pseudovirus THRO4156.18 (HIV-1)
[30] = target: HIV-1 Env of pseudovirus 1056_10_TA11_1826 (HIV-1)
[31] = target: HIV-1 Env of pseudovirus CAP210.2.00.E8 (HIV-1)
[32] = target: HIV-1 Env of pseudovirus CNE20 (HIV-1)
[33] = target: HIV-1 Env of pseudovirus RHPA4259.7 (HIV-1)
[34] = target: HIV-1 Env of pseudovirus 3365.v2.c2 (HIV-1)
[35] = target: HIV-1 Env of pseudovirus T250-4 (HIV-1)
[36] = target: HIV-1 Env of pseudovirus CNE8 (HIV-1)
[37] = target: HIV-1 Env of pseudovirus 0260.v5.c36 (HIV-1)
[38] = target: HIV-1 Env of pseudovirus C2101.c01 (HIV-1)

## 3BNC117 (antibody)
[1]
  IC50: 0.08 µg/mL
  IC80: 0.31 µg/mL
[2]
  IC50: 27.5 µg/mL
  IC80: > 50 µg/mL
[3]
  IC50: 0.03 µg/mL
  IC80: 0.15 µg/mL
[4]
  IC50: 1.19 µg/mL
  IC80: 8.9 µg/mL
[5]
  IC50: > 50 µg/mL
  IC80: > 50 µg/mL
[6]
  IC50: 0.003 µg/mL
  IC80: 0.02 µg/mL
[7]
  IC50: 0.03 µg/mL
  IC80: 0.1 µg/mL
[8]
  IC50: 0.05 µg/mL
  IC80: 0.19 µg/mL
[9]
  IC50: 0.03 µg/mL
  IC80: 0.11 µg/mL
[10]
  IC50: 0.02 µg/mL
  IC80: 0.07 µg/mL
[11]
  IC50: > 50 µg/mL
  IC80: > 50 µg/mL
[12]
  IC50: < 0.09 µg/mL
  IC80: 0.19 µg/mL
[13]
  IC50: 0.26 µg/mL
  IC80: 0.85 µg/mL
[14]
  IC50: 0.01 µg/mL
  IC80: 0.04 µg/mL
[15]
  IC50: 0.33 µg/mL
  IC80: 1.17 µg/mL
[16]
  IC50: 0.02 µg/mL
  IC80: 0.08 µg/mL
[17]
  IC50: 0.06 µg/mL
  IC80: 0.52 µg/mL
[18]
  IC50: 0.08 µg/mL
  IC80: 0.99 µg/mL
[19]
  IC50: 0.55 µg/mL
  IC80: 2.44 µg/mL
[20]
  IC50: 0.05 µg/mL
  IC80: 0.21 µg/mL
[21]
  IC50: 0.02 µg/mL
  IC80: 0.06 µg/mL
[22]
  IC50: 19.3 µg/mL
  IC80: > 50 µg/mL
[23]
  IC50: < 0.01 µg/mL
  IC80: 0.01 µg/mL
[24]
  IC50: 0.22 µg/mL
  IC80: 1.03 µg/mL
[25]
  IC50: 0.13 µg/mL
  IC80: 0.85 µg/mL
[26]
  IC50: 0.2 µg/mL
  IC80: 0.67 µg/mL
[27]
  IC50: 0.37 µg/mL
  IC80: 1.67 µg/mL
[28]
  IC50: 0.01 µg/mL
  IC80: 0.05 µg/mL
[29]
  IC50: 1.76 µg/mL
  IC80: 10.1 µg/mL
[30]
  IC50: 0.3 µg/mL
  IC80: 1.82 µg/mL
[31]
  IC50: 17.2 µg/mL
  IC80: > 50 µg/mL
[32]
  IC50: > 50 µg/mL
  IC80: > 50 µg/mL
[33]
  IC50: < 0.09 µg/mL
  IC80: < 0.09 µg/mL
[34]
  IC50: 0.03 µg/mL
  IC80: 0.1 µg/mL

## PGDM1400 (antibody)
[1]
  neutralization IC50: 0.28 µg/mL
  neutralization IC80: 1.1 µg/mL
[35]
  neutralization IC50: < 0.001 µg/mL
  neutralization IC80: < 0.001 µg/mL
[2]
  neutralization IC50: > 50 µg/mL
  neutralization IC80: > 50 µg/mL
[3]
  neutralization IC50: 0.01 µg/mL
  neutralization IC80: 0.043 µg/mL
[4]
  neutralization IC50: 5.18 µg/mL
  neutralization IC80: 22 µg/mL
[5]
  neutralization IC50: 0.694 µg/mL
  neutralization IC80: > 50 µg/mL
[6]
  neutralization IC50: < 0.001 µg/mL
  neutralization IC80: 0.027 µg/mL
[7]
  neutralization IC50: 4.32 µg/mL
  neutralization IC80: > 50 µg/mL
[8]
  neutralization IC50: > 50 µg/mL
  neutralization IC80: > 50 µg/mL
[9]
  neutralization IC50: 0.016 µg/mL
  neutralization IC80: 0.701 µg/mL
[10]
  neutralization IC50: 0.049 µg/mL
  neutralization IC80: 0.23 µg/mL
[36]
  IC50 (Titer in TZM.bl cells): < 0.001 µg/mL
  IC80 (Titer in TZM.bl cells): 0.01 µg/mL
[11]
  neutralization IC50: 0.021 µg/mL
  neutralization IC80: 0.06 µg/mL
[12]
  neutralization IC50: 0.484 µg/mL
  neutralization IC80: 6.49 µg/mL
[13]
  neutralization IC50: > 50 µg/mL
  neutralization IC80: > 50 µg/mL
[37]
  neutralization IC50: 0.033 µg/mL
  neutralization IC80: 0.175 µg/mL
[14]
  neutralization IC50: < 0.001 µg/mL
  neutralization IC80: 0.008 µg/mL
[15]
  neutralization IC50: > 50 µg/mL
  neutralization IC80: > 50 µg/mL
[16]
  neutralization IC50: 0.002 µg/mL
  neutralization IC80: 0.008 µg/mL
[17]
  neutralization IC50: > 50 µg/mL
  neutralization IC80: > 50 µg/mL
[18]
  neutralization IC50: 0.077 µg/mL
  neutralization IC80: 0.246 µg/mL
[19]
  neutralization IC50: > 50 µg/mL
  neutralization IC80: > 50 µg/mL
[20]
  neutralization IC50: > 50 µg/mL
  neutralization IC80: > 50 µg/mL
[21]
  neutralization IC50: 1.15 µg/mL
  neutralization IC80: 9.97 µg/mL
[22]
  neutralization IC50: > 50 µg/mL
  neutralization IC80: > 50 µg/mL
[23]
  neutralization IC50: < 0.001 µg/mL
  neutralization IC80: 0.002 µg/mL
[24]
  neutralization IC50: 0.063 µg/mL
  neutralization IC80: 0.285 µg/mL
[25]
  neutralization IC50: < 0.001 µg/mL
  neutralization IC80: 0.001 µg/mL
[26]
  neutralization IC50: 0.015 µg/mL
  neutralization IC80: 0.044 µg/mL
[27]
  neutralization IC50: 0.015 µg/mL
  neutralization IC80: 0.26 µg/mL
[28]
  neutralization IC50: 0.028 µg/mL
  neutralization IC80: 0.992 µg/mL
[29]
  neutralization IC50: 0.072 µg/mL
  neutralization IC80: 0.348 µg/mL
[30]
  neutralization IC50: 3.26 µg/mL
  neutralization IC80: 11.8 µg/mL
[31]
  neutralization IC50: 0.034 µg/mL
  neutralization IC80: 0.514 µg/mL
[38]
  IC50 (Titer in TZM.bl cells): 0.006 µg/mL
  IC80 (Titer in TZM.bl cells): 0.021 µg/mL
[32]
  neutralization IC50: 0.004 µg/mL
  neutralization IC80: 0.014 µg/mL
[33]
  neutralization IC50: 0.447 µg/mL
  neutralization IC80: 2.19 µg/mL
